Each substance was assayed against HLA-A*02:01 (Homo sapiens, UniProt P04439, D140Y/D185E/D98H/E176V/E277Q/G131W/G231S/I119V/I121R/I166T/I218V/L300P/L318F/N151K/N90K/P208A/P217A/Q86G/Q94H/R138H/R169H/T345S) (assay: MHC binding assay (UV-ligand exchange, ELISA of exchange yield)). Details: binding to HLA-A*02:01, UV-ligand exchange.
How it was run: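 ELISA of β2m retained on streptavidin-captured, 100-fold diluted complexes (HRP anti-β2m, TMB, 450 nm) gives the yield. Complexes come from UV-triggered exchange of a photocleavable placeholder peptide for the candidate, which must bind to stop complex dissociation.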

Row | Peptide exchange (MHC class I binding score, peptide exchange yield) | Substance
1 | “+++” (≥50 = +++) | 192 (KMLDGASFTL; listed as Homo sapiens) [compound 192]
2 | “+++” (≥50 = +++) | 193 (QLLDADGFLNV; listed as Homo sapiens) [compound 193]
3 | “+++” (≥50 = +++) | 194 (ALPLFVITV; listed as Homo sapiens) [compound 194]
4 | “+++” (≥50 = +++) | 195 (GLFADLLPRL; listed as Homo sapiens) [compound 195]
5 | “++++” (≥75% = ++++) | 196 (YLYSVEIKL; listed as Homo sapiens) [compound 196]
6 | “++” (≥20% = ++) | 197 (ALGPEGGRV; listed as Homo sapiens) [compound 197]
7 | “+++” (≥50 = +++) | 198 (KTINKVPTV; listed as Homo sapiens) [compound 198]
8 | “+++” (≥50 = +++) | 199 (ALQDVPLSSV; listed as Homo sapiens) [compound 199]
9 | “+++” (≥50 = +++) | 200 (LLFGSVQEV; listed as Homo sapiens) [compound 200]
10 | “+++” (≥50 = +++) | 201 (RLVDYLEGI; listed as Homo sapiens) [compound 201]
11 | “+++” (≥50 = +++) | 202 (ALLDQQGSRWTL; listed as Homo sapiens) [compound 202]
12 | “++” (≥20% = ++) | 204 (KIAENVEEV; listed as Homo sapiens) [compound 204]
13 | “+++” (≥50 = +++) | 205 (SLYPGTETMGL; listed as Homo sapiens) [compound 205]
14 | “+++” (≥50 = +++) | 206 (VLQEGKLQKLAQL; listed as Homo sapiens) [compound 206]
15 | “++” (≥20% = ++) | 207 (GLTSTNAEV; listed as Homo sapiens) [compound 207]
16 | “+++” (≥50 = +++) | 208 (KISPVTFSV; listed as Homo sapiens) [compound 208]
17 | “++” (≥20% = ++) | 209 (KLIESKHEV; listed as Homo sapiens) [compound 209]
18 | “++” (≥20% = ++) | 210 (LLLNAVLTV; listed as Homo sapiens) [compound 210]
19 | “++” (≥20% = ++) | 211 (LLWPGAALL; listed as Homo sapiens) [compound 211]
20 | “++” (≥20% = ++) | 212 (ALWDQDNLSV; listed as Homo sapiens) [compound 212]
21 | “+++” (≥50 = +++) | 214 (FLLDLDPLLL; listed as Homo sapiens) [compound 214]
22 | “+++” (≥50 = +++) | 215 (QLINHLHAV; listed as Homo sapiens) [compound 215]
23 | “+++” (≥50 = +++) | 216 (NLWEDPYYL; listed as Homo sapiens) [compound 216]
24 | “++” (≥20% = ++) | 217 (ALIHPVSTV; listed as Homo sapiens) [compound 217]
25 | “++” (≥20% = ++) | 218 (SALEELVNV; listed as Homo sapiens) [compound 218]

Row | Peptide exchange (MHC class I binding score, peptide exchange yield) | Substance
26 | “+++” (≥50 = +++) | 219 (KLSDIGITV; listed as Homo sapiens) [compound 219]
27 | “++” (≥20% = ++) | 220 (LLQKFVPEI; listed as Homo sapiens) [compound 220]
28 | “++” (≥20% = ++) | 221 (ALYEEGLLL; listed as Homo sapiens) [compound 221]
29 | “++” (≥20% = ++) | 222 (NLIENVQRL; listed as Homo sapiens) [compound 222]
30 | “+++” (≥50 = +++) | 223 (ALLENIALYL; listed as Homo sapiens) [compound 223]
31 | “+++” (≥50 = +++) | 224 (TLIDAQWVL; listed as Homo sapiens) [compound 224]
32 | “+++” (≥50 = +++) | 225 (SLLKVLPAL; listed as Homo sapiens) [compound 225]
33 | “++” (≥20% = ++) | 226 (MLYVVPIYL; listed as Homo sapiens) [compound 226]
34 | “++” (≥20% = ++) | 227 (ALMNTLLYL; listed as Homo sapiens) [compound 227]
35 | “++” (≥20% = ++) | 228 (AMQEYIAVV; listed as Homo sapiens) [compound 228]
36 | “++” (≥20% = ++) | 229 (RLPGPLGTV; listed as Homo sapiens) [compound 229]
37 | “+” (≥10% = +) | 230 (ILVDWLVEV; listed as Homo sapiens) [compound 230]
38 | “++” (≥20% = ++) | 231 (FLSPQQPPLLL; listed as Homo sapiens) [compound 231]
39 | “++” (≥20% = ++) | 232 (ALLEAQDVELYL; listed as Homo sapiens) [compound 232]
40 | “++” (≥20% = ++) | 233 (VLSETLYEL; listed as Homo sapiens) [compound 233]
41 | “++” (≥20% = ++) | 234 (ALMEDTGRQML; listed as Homo sapiens) [compound 234]
42 | “++++” (≥75% = ++++) | 235 (YLNDLHEVLL; listed as Homo sapiens) [compound 235]
43 | “+++” (≥50 = +++) | 236 (GLLEAKVSL; listed as Homo sapiens) [compound 236]
44 | “++++” (≥75% = ++++) | 237 (ALLEASGTLLL; listed as Homo sapiens) [compound 237]
45 | “+++” (≥50 = +++) | 238 (YLISFQTHI; listed as Homo sapiens) [compound 238]
46 | “+++” (≥50 = +++) | 239 (AAFAGKLLSV; listed as Homo sapiens) [compound 239]
47 | “+++” (≥50 = +++) | 240 (ILLEQAFYL; listed as Homo sapiens) [compound 240]
48 | “+++” (≥50 = +++) | 241 (SLVEVNPAYSV; listed as Homo sapiens) [compound 241]
49 | “++” (≥20% = ++) | 242 (AIAYILQGV; listed as Homo sapiens) [compound 242]
50 | “+++” (≥50 = +++) | 243 (LLLNELPSV; listed as Homo sapiens) [compound 243]

Source: US10047131B2, “Peptides and combination of peptides for use in immunotherapy against ovarian cancer and other cancers” (immatics biotechnologies GmbH, priority 2015, dated 2018)
